B1: W37only single-Trp mutant of MgtE (natural protein, Thermus thermophilus, UniProt Q5SMG8 1-450, looked up)
chain: MEEKLAVSLQEALQEGDTRALREVLEEIHPQDLLALWDELKGEHRYVVLTLLPKAKAAEVLSHLSPEEQAEYLKTLPPFRLREILEELSLDDLADALQAVRKEDPAYFQRLKDLLDPRTRAEVEALARYEEDEAGGLMTPEYVAVREGMTVEEVLRFLRRAAPDAETIYYIYVVDEKGRLKGVLSLRDLIVADPRTRVAEIMNPKVVYVRTDTDQEEVARLMADYDFTVLPVVDEEGRLVGIVTVDDVLDVLEAEATEDIHKLGAVDVPDLVYSEAGPVALFLARVRFLVILILTGMVTSSILQGFESVLEAVTALAFYVPVLLGTGGNTGNQSATLIIRALATRDLDLRDFRRVFLKEMGVGLLLGLTLSFLLVGKVYFDGHPLLLPVVGVSLVLIVFFANLVGAMLPFLLRRLGVDPALVSNPLVATLSDVTGLLIYLSVARLLLEAV
B2: W352only single-Trp mutant of MgtE (natural protein, Thermus thermophilus, UniProt Q5SMG8 1-450, looked up)
chain: MEEKLAVSLQEALQEGDTRALREVLEEIHPQDLLALFDELKGEHRYVVLTLLPKAKAAEVLSHLSPEEQAEYLKTLPPFRLREILEELSLDDLADALQAVRKEDPAYFQRLKDLLDPRTRAEVEALARYEEDEAGGLMTPEYVAVREGMTVEEVLRFLRRAAPDAETIYYIYVVDEKGRLKGVLSLRDLIVADPRTRVAEIMNPKVVYVRTDTDQEEVARLMADYDFTVLPVVDEEGRLVGIVTVDDVLDVLEAEATEDIHKLGAVDVPDLVYSEAGPVALFLARVRFLVILILTGMVTSSILQGFESVLEAVTALAFYVPVLLGTGGNTGNQSATLIIRALATRDLDLRDWRRVFLKEMGVGLLLGLTLSFLLVGKVYFDGHPLLLPVVGVSLVLIVFFANLVGAMLPFLLRRLGVDPALVSNPLVATLSDVTGLLIYLSVARLLLEAV
B3: W288only single-Trp mutant of MgtE (natural protein, Thermus thermophilus, UniProt Q5SMG8 1-450, looked up)
chain: MEEKLAVSLQEALQEGDTRALREVLEEIHPQDLLALFDELKGEHRYVVLTLLPKAKAAEVLSHLSPEEQAEYLKTLPPFRLREILEELSLDDLADALQAVRKEDPAYFQRLKDLLDPRTRAEVEALARYEEDEAGGLMTPEYVAVREGMTVEEVLRFLRRAAPDAETIYYIYVVDEKGRLKGVLSLRDLIVADPRTRVAEIMNPKVVYVRTDTDQEEVARLMADYDFTVLPVVDEEGRLVGIVTVDDVLDVLEAEATEDIHKLGAVDVPDLVYSEAGPVALFLARVRWLVILILTGMVTSSILQGFESVLEAVTALAFYVPVLLGTGGNTGNQSATLIIRALATRDLDLRDFRRVFLKEMGVGLLLGLTLSFLLVGKVYFDGHPLLLPVVGVSLVLIVFFANLVGAMLPFLLRRLGVDPALVSNPLVATLSDVTGLLIYLSVARLLLEAV
B4: W380only single-Trp mutant of MgtE (natural protein, Thermus thermophilus, UniProt Q5SMG8 1-450, looked up)
chain: MEEKLAVSLQEALQEGDTRALREVLEEIHPQDLLALFDELKGEHRYVVLTLLPKAKAAEVLSHLSPEEQAEYLKTLPPFRLREILEELSLDDLADALQAVRKEDPAYFQRLKDLLDPRTRAEVEALARYEEDEAGGLMTPEYVAVREGMTVEEVLRFLRRAAPDAETIYYIYVVDEKGRLKGVLSLRDLIVADPRTRVAEIMNPKVVYVRTDTDQEEVARLMADYDFTVLPVVDEEGRLVGIVTVDDVLDVLEAEATEDIHKLGAVDVPDLVYSEAGPVALFLARVRFLVILILTGMVTSSILQGFESVLEAVTALAFYVPVLLGTGGNTGNQSATLIIRALATRDLDLRDFRRVFLKEMGVGLLLGLTLSFLLVGKVYWDGHPLLLPVVGVSLVLIVFFANLVGAMLPFLLRRLGVDPALVSNPLVATLSDVTGLLIYLSVARLLLEAV
B5: W79only single-Trp mutant of MgtE (natural protein, Thermus thermophilus, UniProt Q5SMG8 1-450, looked up)
chain: MEEKLAVSLQEALQEGDTRALREVLEEIHPQDLLALFDELKGEHRYVVLTLLPKAKAAEVLSHLSPEEQAEYLKTLPPWRLREILEELSLDDLADALQAVRKEDPAYFQRLKDLLDPRTRAEVEALARYEEDEAGGLMTPEYVAVREGMTVEEVLRFLRRAAPDAETIYYIYVVDEKGRLKGVLSLRDLIVADPRTRVAEIMNPKVVYVRTDTDQEEVARLMADYDFTVLPVVDEEGRLVGIVTVDDVLDVLEAEATEDIHKLGAVDVPDLVYSEAGPVALFLARVRFLVILILTGMVTSSILQGFESVLEAVTALAFYVPVLLGTGGNTGNQSATLIIRALATRDLDLRDFRRVFLKEMGVGLLLGLTLSFLLVGKVYFDGHPLLLPVVGVSLVLIVFFANLVGAMLPFLLRRLGVDPALVSNPLVATLSDVTGLLIYLSVARLLLEAV
B6: W282only single-Trp mutant of MgtE (natural protein, Thermus thermophilus, UniProt Q5SMG8 1-450, looked up)
chain: MEEKLAVSLQEALQEGDTRALREVLEEIHPQDLLALFDELKGEHRYVVLTLLPKAKAAEVLSHLSPEEQAEYLKTLPPFRLREILEELSLDDLADALQAVRKEDPAYFQRLKDLLDPRTRAEVEALARYEEDEAGGLMTPEYVAVREGMTVEEVLRFLRRAAPDAETIYYIYVVDEKGRLKGVLSLRDLIVADPRTRVAEIMNPKVVYVRTDTDQEEVARLMADYDFTVLPVVDEEGRLVGIVTVDDVLDVLEAEATEDIHKLGAVDVPDLVYSEAGPVALWLARVRFLVILILTGMVTSSILQGFESVLEAVTALAFYVPVLLGTGGNTGNQSATLIIRALATRDLDLRDFRRVFLKEMGVGLLLGLTLSFLLVGKVYFDGHPLLLPVVGVSLVLIVFFANLVGAMLPFLLRRLGVDPALVSNPLVATLSDVTGLLIYLSVARLLLEAV

Target: the molecule itself
Test: SEC

Binding result, binds:
B1
B2
B3
B4
B5
B6

From article PMC7611467 (Journal of molecular biology, 2020)
